From US20070031511A1 (published 2007)
[ ]: non-standard residue; d: D form. pGlu = O=C1CC[C@@H](C(=O)O)N1

Experiments:
[1] = target: Ggly receptor on IMGE-5 cells; assay: cell-based or functional assay
human CCK-2 receptor [2] = target: T1, human CCK-2 receptor (human, UniProt P32239 1-447); assay: cell-based or functional assay
T1 sequence (looked up): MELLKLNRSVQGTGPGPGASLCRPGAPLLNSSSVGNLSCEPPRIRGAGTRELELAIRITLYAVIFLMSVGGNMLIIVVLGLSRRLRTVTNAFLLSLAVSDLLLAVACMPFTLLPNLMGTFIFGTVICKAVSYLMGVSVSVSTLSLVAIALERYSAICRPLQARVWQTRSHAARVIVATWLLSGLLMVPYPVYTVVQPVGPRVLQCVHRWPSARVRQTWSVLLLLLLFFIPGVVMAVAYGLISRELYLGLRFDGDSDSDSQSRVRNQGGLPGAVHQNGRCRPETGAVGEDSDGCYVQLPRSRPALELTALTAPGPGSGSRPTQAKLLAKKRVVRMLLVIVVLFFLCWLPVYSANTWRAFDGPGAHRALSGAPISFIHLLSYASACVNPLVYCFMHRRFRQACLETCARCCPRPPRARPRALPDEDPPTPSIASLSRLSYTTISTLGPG

human CCK-2 receptor [3] = target: T1, human CCK-2 receptor; assay: fitted [125I]-BH-CCK8 binding without competitor, displacement curve, Jurkat cells
Experimental: (§1) Non-specific binding was evaluated with […] of unlabelled CCK₈. Incubation was stopped by adding 2 ml of ice-cold PBS containing 2% bovine serum albumin. After centrifugation, supernatants were removed and the radioactivity bound to the cell membranes was measured in a γ-counter (LKB, Wallac, Finland).
(§2) Values of the % maximum binding in the absence of competitor and of the IC₅₀ were obtained from the data presented in FIG. 21 by least squares fitting with the program Sigmaplot. Values from the indicated number of independent experiments were combined to obtain the mean values (±S.E.) presented above. Data were analyzed by one-way analysis of variance.

human CCK-2 receptor [4] = target: T1, human CCK-2 receptor; assay: fitted [125I]-BH-CCK8 binding without competitor, displacement curve, CCK-2 receptor on transfected COS-7 cells
Experimental: as §2

human CCK-2 receptor [5] = target: T1, human CCK-2 receptor; assay: displacement of [125I]-BH-CCK8, Jurkat cells; reference Gamide
human CCK-2 receptor [6] = target: T1, human CCK-2 receptor; assay: displacement of [125I]-BH-CCK8, CCK-2 receptor on Jurkat cells
Experimental: as §1, §2

human CCK-2 receptor [7] = target: T1, human CCK-2 receptor; assay: displacement of [125I]-BH-CCK8, transfected COS-7 cells; reference Gamide
human CCK-2 receptor [8] = target: T1, human CCK-2 receptor; assay: single experiment of FIG. 21, displacement of [125I]-BH-CCK8, transfected COS-7 cells
Source text: The lines of best fit shown in FIG. 21 were obtained by nonlinear regression to a single site model with the program Sigmaplot.

human CCK-2 receptor [9] = target: T1, human CCK-2 receptor; assay: displacement of [125I]-BH-CCK8, CCK-2 receptor on transiently transfected COS-7 cells
Experimental: as §2

Binder	ED50 (nM), proliferation of IMGE cells, thymidine uptake [1] [nM]	% Maximum Binding (human CCK-2 receptor [3]) [%]	% Maximum Binding (human CCK-2 receptor [4]) [%]	further results
LEEEEEAYG [nonapeptide LE5AYG]	1			
LEEEEEA [heptapeptide LE5A]	2.4			
LEEEEE [hexapeptide LE5]	0.9			
EEEEEAY [heptapeptide E5AY]	1.1			
EEEEEA [hexapeptide E5A]	0.5			
XGPWLEEEEEAYGWMDF (N-terminal pyroglutamate (Z); C-terminal phenylalanine amide, Synthetic peptide bought from Bachem; Also tested with 1 uM DFO or with 8 moles Bi3+ per mole; also called G17) [amidated gastrin17 (Gamide)]		100	94.2	inositol phosphate turnover (human CCK-2 receptor [2]): 4 fold
[pGlu]GPWLEAEEEAYGWMDF-NH2 (ends and bridges not checked, Gamide mutant with Glu7 replaced by Ala; Synthesised by Auspep) [GamideE7A]		96.7	92	ratio IC50 GamideE7A/IC50 Gamide (human CCK-2 receptor [5]): 2.4; IC50 (human CCK-2 receptor [6]): 3.1 nM; ratio IC50 GamideE7A/IC50 Gamide (human CCK-2 receptor [7]): 1.4; IC50 (human CCK-2 receptor [8]): 25.1 nM; IC50 (human CCK-2 receptor [9]): 37 nM
[pGlu]GPWLEEAAEAYGWMDF-NH2 (ends and bridges not checked, Gamide mutant with Glu8 and Glu9 replaced by Ala; Synthesised by Auspep) [GamideE8,9A]		97.8	98.4	ratio IC50 GamideE8,9A/IC50 Gamide (human CCK-2 receptor [5]): 2.2; IC50 (human CCK-2 receptor [6]): 2.8 nM; ratio IC50 GamideE8,9A/IC50 Gamide (human CCK-2 receptor [7]): 4.1; IC50 (human CCK-2 receptor [8]): 58.2 nM; IC50 (human CCK-2 receptor [9]): 112 nM
